Here are results for 14 molecules from publication PMC12095580, “Wnt signalosome assembly is governed by conformational flexibility of Axin and by the AP2 clathrin adaptor” (Nature Communications, 2025).

Non-standard residues stand in square brackets, D forms with d. No end group written: not given here. pS = N[C@@H](COP(=O)(O)O)C(=O)O; Lip = Lipoyl solubility tag; His6x = hexahistidine tag

In one assay the target is Axin1 LIRα, 345-361 (UniProt O15169). Kind of assay: ITC. The conditions noted are these: reference: unphosphorylated 43mer peptide; sites S317,S321,S325.
Assay [1] addresses His6x-Lip-A5_(Axin) (Axin_(308-366)) (UniProt O15169). Nature of the assay: ITC; 50 μM Axin fragment or GSK3β titrated with 500 μM Lip-L1_(LRP6); 25 °C, 25 mM sodium phosphate pH 6.7, 150 mM NaCl; one set of binding sites; apparent KD assuming 1:1. Background: ITC needs no label: the signal is the heat of the interaction.
The target of assay [2] is LRP6-GFP (UniProt O75581). Nature of the assay: coIP (GFP IP, α-HA blot densitometry).
Assay [3] has as its target His6x-Lip-L2_(LRP6) (LRP6_(1539-1613)) (UniProt O75581). Nature of the assay: ITC; binding of GSK3 or Axin to the CPPSPYT element of the distal LRP6 ctail; constructs and concentrations not told.
Assay [4] addresses LRP6-GFP (UniProt O75581). Nature of the assay: coIP (GFP IP, α-Axin1 blot densitometry). The conditions noted are these: co-expressed with wt GSK3β-HA.
Another assay has as its target GSK3β-HA (UniProt P49841). Nature of the assay: coIP (GFP IP, α-HA blot densitometry).
A further assay deals with FLAG-Axin1 (UniProt O15169). Kind of assay: coIP (GFP IP, α-FLAG blot densitometry). Particulars: HEK293T cells, co-expressed with wt GSK3β-HA.
Assay [5] concerns the target T1, phosphorylated Axin LIRup peptide (43PPP, Axin_(308-351) including pS317, pS321, pS325) (UniProt O15169 308-351, phosphoserine at 317, 321 and 325).
T1 construct: Axin1 LIRup with 7 residues of LIRα; A308-Q351 counts 44 residues though the peptide is called 43PPP; source: synthetic peptide, bought: Biomatic
T1 peptide (looked up): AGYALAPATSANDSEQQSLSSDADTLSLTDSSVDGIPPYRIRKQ
Nature of the assay: ITC; 50 μM synthetic 43mer or 43PPP peptide in the cell titrated with 500 μM wt or RKR mutant Axin Lip-LIRα; 25 °C, 25 mM sodium phosphate pH 6.7, 150 mM NaCl. Particulars: both partners purified.

In assay [6] the target is His6x-AP2μ (YxxΦ-binding domain of rat AP2μ) (rat). Nature of the assay: ITC; 114 or 100 μM His6x-AP2μ titrated with 2 mM (SYRHFA) or 1.74 mM (…) His6x-Lip-YxxΦ peptide; 25 °C, 50 mM Tris-HCl pH 7.4, 300 mM NaCl.
The target in assay [7] is T2, GSK3β-K85R (recombinant, full-length) (UniProt P49841 1-420, K85R).
T2 construct: glycogen synthase kinase 3β, catalytically dead; also called catalytically-dead GSK3; source: E. coli BL21-CodonPlus(DE3)-RIL, purified (glutathione agarose, 3C cleavage, Superdex 200); not shown: GST, N-terminal, cleaved
Kind of assay: NMR titration; BEST-TROSY peak height attenuation (bleaching): 80 μM 15N-labelled protein +/- 80 μM unlabelled partner; 25 mM sodium phosphate pH 6.7, 150 mM NaCl, 293 K. The conditions noted are these: both partners purified.

For assay [8], the target named is T3, His6x-Lip-L1_(LRP6) (LRP6_(1463-1538) bearing YYYF > A) (UniProt O75581 1463-1538, YYYF > A (Y1517; position worked out from S1516 and S1521, p-0048) | YYYF > A …).
T3 sequence: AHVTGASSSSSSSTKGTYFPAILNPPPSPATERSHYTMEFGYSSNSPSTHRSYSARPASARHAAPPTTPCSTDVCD
Nature of the assay: ITC.

Assay [9] concerns the target T4, His6x-Lip-L1_(LRP6) (LRP6_(1463-1538) bearing YYYF > A) (UniProt O75581 1463-1538, YYYF > A (Y1517; position worked out from S1516 and S1521, p-0048) | YYYF > A …, Lipoyl solubility tag omitted. Mutated positions are not given; inferred because LIRup (308-344) should contain exactly five Asp and one Glu, in the order D-E-D4, and the text says all …).
T4 sequence: T3 sequence
Nature of the assay: ITC.

For another assay, the target named is T5, Axin Lip-LIRα (UniProt O15169 345-361).
T5 chain: PYRIRKQHRREMQESVQ
Nature of the assay: ITC; phosphorylated 43PPP.

Another assay deals with T6, RKR mutant Axin Lip-LIRα (UniProt O15169 345-361, RKR > A (R347) | RKR > A (K350) | RKR > A (R354)).
T6 chain: PYAIRAQHRAEMQESVQ
Nature of the assay: ITC; phosphorylated 43PPP.

Setting [10] is: HEK293T cells, co-expressed with wt FLAG-Axin1.

Chain of LRP6-GFP (O75581 20-1613): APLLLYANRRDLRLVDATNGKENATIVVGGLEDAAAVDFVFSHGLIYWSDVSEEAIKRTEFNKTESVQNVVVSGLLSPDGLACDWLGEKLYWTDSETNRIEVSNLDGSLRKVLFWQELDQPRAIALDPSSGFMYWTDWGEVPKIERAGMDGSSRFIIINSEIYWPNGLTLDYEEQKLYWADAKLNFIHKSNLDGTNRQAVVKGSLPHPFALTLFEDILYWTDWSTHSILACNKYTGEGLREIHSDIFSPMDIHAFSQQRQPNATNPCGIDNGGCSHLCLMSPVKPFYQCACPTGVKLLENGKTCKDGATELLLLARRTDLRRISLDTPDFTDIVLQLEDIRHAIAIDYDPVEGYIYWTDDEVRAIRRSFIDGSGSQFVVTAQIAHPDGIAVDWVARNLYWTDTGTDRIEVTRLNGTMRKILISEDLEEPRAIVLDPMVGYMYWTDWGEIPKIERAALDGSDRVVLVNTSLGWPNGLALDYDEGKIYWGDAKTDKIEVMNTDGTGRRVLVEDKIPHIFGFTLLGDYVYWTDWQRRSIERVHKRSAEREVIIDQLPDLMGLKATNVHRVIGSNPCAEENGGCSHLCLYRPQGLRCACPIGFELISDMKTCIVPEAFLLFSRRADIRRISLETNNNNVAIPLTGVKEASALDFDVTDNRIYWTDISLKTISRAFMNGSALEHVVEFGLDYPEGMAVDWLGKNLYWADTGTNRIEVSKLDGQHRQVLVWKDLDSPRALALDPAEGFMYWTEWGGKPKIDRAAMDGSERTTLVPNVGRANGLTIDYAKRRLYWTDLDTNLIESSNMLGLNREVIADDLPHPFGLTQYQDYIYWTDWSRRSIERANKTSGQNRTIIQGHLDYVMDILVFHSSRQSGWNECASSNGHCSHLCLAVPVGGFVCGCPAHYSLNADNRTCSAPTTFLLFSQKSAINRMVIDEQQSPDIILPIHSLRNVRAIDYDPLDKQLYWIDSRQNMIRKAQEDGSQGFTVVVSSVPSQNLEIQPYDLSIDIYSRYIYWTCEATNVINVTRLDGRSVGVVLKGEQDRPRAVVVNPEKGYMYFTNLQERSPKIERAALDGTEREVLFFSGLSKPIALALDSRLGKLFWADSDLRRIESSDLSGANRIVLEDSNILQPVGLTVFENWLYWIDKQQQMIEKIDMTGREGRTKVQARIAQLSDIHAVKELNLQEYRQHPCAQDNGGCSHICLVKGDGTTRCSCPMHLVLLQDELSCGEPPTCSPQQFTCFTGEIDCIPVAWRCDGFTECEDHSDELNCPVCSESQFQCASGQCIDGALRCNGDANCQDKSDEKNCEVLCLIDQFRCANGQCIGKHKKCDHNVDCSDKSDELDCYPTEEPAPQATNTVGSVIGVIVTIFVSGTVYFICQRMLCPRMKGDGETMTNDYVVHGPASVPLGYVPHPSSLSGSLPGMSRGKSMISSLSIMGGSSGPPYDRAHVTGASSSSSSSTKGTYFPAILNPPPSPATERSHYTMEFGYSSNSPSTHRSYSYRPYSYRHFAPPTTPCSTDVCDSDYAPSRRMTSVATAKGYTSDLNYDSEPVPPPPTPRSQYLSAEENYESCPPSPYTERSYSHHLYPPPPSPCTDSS
Chain of His6x-Lip-L2_(LRP6) (LRP6_(1539-1613)) (O75581 1539-1613): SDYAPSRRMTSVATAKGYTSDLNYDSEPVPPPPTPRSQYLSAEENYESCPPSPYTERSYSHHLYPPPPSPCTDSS

For “Axin1 LIRup peptide, 308-351 (from UniProt O15169) 43PPP peptide (pS317, pS321, pS325)”, the “binding against the reference” value with Axin1 LIRα, 345-361 is “stronger”.

“His6x-Lip-L1_(LRP6) (LRP6_(1463-1538) bearing YYYF > A) (from UniProt O75581 1463-1538) (domain or fragment)”: the Kd in assay [1] is 1.37 µM.

GSK3β-HA (from UniProt P49841) VE>GR: the results for the ratio to parent in the assay with LRP6-GFP [2] (setting [10]) and with LRP6-GFP [2] (co-expressed with FLAG-Axin1 S1>A (the wt = 1.00 lane has wt Axin; wt GSK3β-HA with Axin S1>A reads 2.98)) were 0.05 and 0.03, respectively.

“GSK3β (recombinant, full-length wt) (from UniProt P49841 1-420) (enzyme)” gave a Kd in [3] greater than 500 µM.

“FLAG-Axin1 (from UniProt O15169) S493D; S497D”: in the assay with LRP6-GFP [4], the ratio to parent worked out at 0.56.

As for “LRP6-GFP (from UniProt O75581) m10 (PPPSPxS>PPPAPxA, motifs A-E)”, the figures for the ratio to parent in the assay with GSK3β-HA (setting [10]), in the assay with GSK3β-HA (co-expressed with FLAG-Axin1 S1>A (the wt = 1.00 lane has wt Axin)) and with FLAG-Axin1 were 0.07, 0.01 and 0.11, respectively.

Turning to “FLAG-Axin1 (from UniProt O15169) S493A; S497A”, the ratio to parent in the assay with LRP6-GFP [4] is 1.57.

B1: RKR mutant Axin Lip-LIRα (domain or fragment, UniProt O15169 345-361, looked up)
chain: PYAIRAQHRAEMQESVQ
notes: Axin1 LIRα with R347, K350, R354 changed to alanine; also called Lip-LIRα RKR > A; not shown: Lipoyl solubility tag (Lip), N-terminal, kept
As to B1, in [5], the “fold reduction of binding against wt Lip-LIRα” value was roughly 10 x.

B2: His6x-Lip-SYRHFA peptide (peptide)
chain: {His6x-Lip}-SYRHFA
Consider B2, for which the Kd in assay [6] turned out to be 16.2 µM.

B3: His6x-Lip-A3_(Axin) (Axin_(308-426)) (domain or fragment, UniProt O15169 308-426, looked up)
chain: AGYALAPATSANDSEQQSLSSDADTLSLTDSSVDGIPPYRIRKQHRREMQESVQVNGRVPLPHIPRTYRVPKEVRVEPQKFAEELIHRLEAVQRTREAEEKLEERLKRVRMEEEGEDGD
notes: Axin1 fragment with LIR, PRTxR motif and GIR; source: E. coli BL21-CodonPlus(DE3)-RIL, purified (Ni-NTA, Superdex 75); 15N-labelled where observed by NMR; not shown: Lipoyl solubility tag (Lip), N-terminal, kept
Consider B3, for which the Kd in assay [3] was greater than 500 µM. Also, the binding result in assay [7] is “binds”.

B4: Lip-RKR > A (in Lip-A5_(Axin)) (domain or fragment)
chain: AGYALAPATSANDSEQQSLSSDADTLSLTDSSVDGIPPYAIRAQHRAEMQESVQVNGRV
Turning to B4, the Kd in assay [8] is 5.15 µM.

B5: Lip-DED4 > A (in Lip-A5_(Axin)) (domain or fragment)
chain: AGYALAPATSANASAQQSLSSAAATLSLTASSVAGIPPYRIRKQHRREMQESVQVNGRV
B5 displayed a Kd in assay [9] of 118 µM.

B6: His6x-Lip-… peptide (peptide)
chain: {His6x-Lip}-SYRPYSYRHFA
As for B6, in [6], the Kd was determined as 8 µM.

B7: phosphorylated Axin LIRup peptide (43PPP, Axin_(308-351) including pS317, pS321, pS325) (peptide)
peptide: AGYALAPAT[pS]AND[pS]EQQ[pS]LSSDADTLSLTDSSVDGIPPYRIRKQ
B7: the Kd amounted to 47.9 µM in the assay with Axin Lip-LIRα and 448 µM with RKR mutant Axin Lip-LIRα.
